This note sets out measurements from US20250257133A1 (ADAGENE PTE, published 2025).

Where two headings read alike, the source gives them in different places. Where only a bound is given, the exact number is not on record here.

Experiment [1] addresses T1, TROP2 on tumor cell lines (UniProt P09758 27-323, limits assumed).
T1 construct: whole, on cells; also called tumor-associated calcium signal transducer 2; TROP2 on H292, NCI-N87, HT-29
T1 sequence (looked up): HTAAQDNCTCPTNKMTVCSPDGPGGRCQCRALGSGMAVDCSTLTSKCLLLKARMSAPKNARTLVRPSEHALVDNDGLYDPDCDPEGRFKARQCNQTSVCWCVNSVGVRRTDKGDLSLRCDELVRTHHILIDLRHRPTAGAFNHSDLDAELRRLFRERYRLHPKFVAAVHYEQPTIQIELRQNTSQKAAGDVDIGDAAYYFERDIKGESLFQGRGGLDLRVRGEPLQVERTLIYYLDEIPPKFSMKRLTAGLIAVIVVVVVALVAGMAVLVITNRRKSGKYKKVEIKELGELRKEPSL
The experiment in a line: flow cytometry, NCI-N87 cells. In general terms: A flow cytometer gives signals particle by particle.
Experimental: (§1) H292, NCI-N87, or HT29 cells were cultured and seeded in 96-well plates at 1.0×10⁵ cells/well and incubated with serially diluted test anti-TROP2 BsAbs for 30 minutes at 4° C. in 2% FBS/RPMI1640 buffer. Next, the cells were washed twice with DPBS and further incubated with secondary anti-human IgG antibodies (APC-anti-human IgG Fc antibody, 1:300 dilution for H292 cell; APC-F (ab′) 2 fragment goat anti-human IgG (H+L), 1:500 dilution for NCI-N87 and HT29 cells) for 30 minutes at 4° C. Finally, the cells were washed twice with DPBS and resuspended in FACS buffer for flow cytometry analysis. For analysis, the MFI values versus concentrations were plotted using FlowJo 10 software (FlowJo LLC) and the data were further fitted with four-parameter non-linear regression to obtain EC₅₀ values by GraphPad Prism version 7 for Windows.

In experiment [2] the target is T1, TROP2 on tumor cell lines. The experiment in a line: flow cytometry, H292 cells.
Experimental: as §1
Experiment [3] deals with T1, TROP2 on tumor cell lines. The experiment can be described thus: flow cytometry, HT-29 cells.
Experimental: as §1
Experiment [4] concerns the target T2, Recombinant human CD28-Fc (human, UniProt P10747 19-152).
T2 construct: not shown: Fc part
The experiment in a line: ELISA on coated recombinant human CD28-Fc, HRP anti-human IgG (Fab specific), A450. In general terms: In an ELISA, binding on a coated surface is turned into a signal by an enzyme label.

In experiment [5] the target is T3, His-tagged human CD28 protein (human, UniProt P10747 19-152).
T3 construct: not shown: His tag
The experiment can be described thus: Octet BLI, mAb captured.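 Note: Anti-human Fc biosensors captured the antibodies, then His-tagged protein analytes at 100 nM associated for 300 s and dissociated for 300 s, fitted by a 1:1 Langmuir model.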

For experiment [6], the target named is T4, His-tagged human CTLA4 protein (human, UniProt P16410 36-161, limits assumed).
T4 construct: not shown: His tag
T4 sequence (P16410 36-161 limits assumed): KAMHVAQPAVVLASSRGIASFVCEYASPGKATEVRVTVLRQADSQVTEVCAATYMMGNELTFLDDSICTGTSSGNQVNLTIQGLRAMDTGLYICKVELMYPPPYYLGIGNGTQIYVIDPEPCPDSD
The experiment in a line: Octet BLI, mAb captured.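 Note: Anti-human Fc biosensors captured the antibodies, then His-tagged protein analytes at 100 nM associated for 300 s and dissociated for 300 s, fitted by a 1:1 Langmuir model.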 A general note: Biolayer interferometry detects binding as a change in optical thickness at a sensor tip.

The target of experiment [7] is T2, Recombinant human CD28-Fc. The experiment in a line: ELISA on coated recombinant human CD28-Fc, HRP anti-human IgG (Fab specific), A450. This is another data set of the same source.
Experimental: When measuring the masking efficiency through ELISA, recombinant human CD28-Fc was diluted to 2 g/mL in PBS and coated onto a MaxiSorp™ high protein-binding capacity 96 well ELISA plate (ThermoFisher Scientific) at 4° C. overnight. Plates were blocked with PBS supplemented with 3% non-fat milk at 37° C. for 1 hour. After washing, 100 μL of 3-fold serial dilutions of anti-CD28 test mAbs were added to each well. After incubation at 37° C. for 1 hour, plates were washed four times, and 100 μL horseradish peroxidase (HRP)-conjugated anti-human IgG (Fab specific) (1:6000 dilution) secondary antibody was added to each well. Plates were incubated at 37° C. for 1 hour, washed four times, and then 50 μL a TMB substrate (3, 3′, 5, 5′-tetramethylbenzidine) solution was added to each well, and the plate was incubated at room temperature. Absorbance at 450 nm was measured after the reactions were stopped with 50 μL sulfuric acid stop solution per well. The EC₅₀ was evaluated by fitting the ELISA data using the sigmoidal (four-parameter logistic equation) model of GraphPad Prism version 6 for Windows, GraphPad Software, La Jolla California USA, www.graphpad.com.
The target in experiment [8] is Human CD28 (ELISAs of Examples 4 and 13) (human, UniProt P10747 19-152, limits assumed). The experiment in a line: ELISA, blocking of CD28-CD80.
Experiment [9] has as its target T5, Recombinant mouse CD28-Fc (mouse, UniProt P31041 20-150).
T5 construct: not shown: Fc part
The experiment in a line: ELISA, coated CD28-Fc.

Experiment [10] has as its target T2, Recombinant human CD28-Fc. The experiment in a line: ELISA, coated CD28-Fc.
Experimental: (§2) Recombinant human and mouse CD28-Fc were diluted to 2 g/mL in PBS and coated on Nunc MaxiSorp™ high protein-binding capacity 96 well ELISA plates (ThermoFisher Scientific) at 4° C. overnight. Plates were blocked with PBS supplemented with 3% non-fat milk at 37° C. for 1 hour. After washing, 50 PL of 3-fold serial dilutions of a panel of anti-CD28 test mAbs were added to each well. After incubation at 37° C. for 1 hour, plates were washed four times, and 100 μL of a horseradish peroxidase (HRP)-conjugated anti-human IgG (Fab specific) (1:6000 dilution) secondary antibody was added to each well. Plates were incubated at 37° C. for 1 hour, washed four times, and then 50 μL of a TMB substrate (3, 3′, 5, 5′-tetramethylbenzidine) solution was added to each well, and the plate was incubated at room temperature. Absorbance at 450 nm was measured after the reactions were stopped by adding 50 μL of a sulfuric acid stop solution to each well. The EC₅₀ was evaluated by fitting the ELISA data using the asymmetrical sigmoidal (4-parameter logistic equation) model of GraphPad Prism version 7 for Windows, GraphPad Software, La Jolla California USA, www.graphpad.com.
For the next experiment, the target named is T6, Human CD28 on cells (human, UniProt P10747 19-220).
T6 construct: Jurkat E6-1 cells, primary human T cells, or transfected HEK293F cells; also called CD28 on Jurkat cells; CD28 on human CD3+ T cells
The experiment can be described thus: flow cytometry, Jurkat cells.

The target in experiment [11] is Human CTLA4 (ligand competition ELISA) (human, UniProt P16410 36-161, limits assumed). The experiment can be described thus: ELISA, blocking of CTLA4-CD80.
Sequence of Human CTLA4 (ligand competition ELISA) (P16410 36-161 limits assumed): as above
Experiment [12] addresses T5, Recombinant mouse CD28-Fc. The experiment can be described thus: ELISA on coated recombinant mouse CD28-Fc, HRP anti-human IgG (Fab specific), A450; panel 'Mouse CD28'.
Experimental: as §2

T5 sequence (P31041 20-150 limits assumed): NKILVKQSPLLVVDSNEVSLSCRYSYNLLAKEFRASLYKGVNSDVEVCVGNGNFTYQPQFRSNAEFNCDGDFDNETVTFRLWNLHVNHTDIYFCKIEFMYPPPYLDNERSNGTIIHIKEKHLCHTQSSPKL
Experimental for Human CD28 on cells: Next, the cells were washed twice with DPBS and further incubated with a APC-anti-human IgG Fc secondary antibody (1 μg/mL, 100 μL/well, Biolegend) for 30 minutes at 4° C. Finally, the cells were washed twice with DPBS and suspended in FACS buffer for flow cytometry analysis. For analysis, the Mean Fluorescence Intensity (MFI) values versus concentrations were plotted using FlowJo 10 software (FlowJo LLC) and the data were further fitted with four-parameter non-linear regression to obtain EC₅₀ values by GraphPad Prism version 7 for Windows, GraphPad Software, La Jolla California USA, www.graphpad.com.

B1: TY27571 (bispecific antibody, human IgG1, kappa, N297A)
light: DIQLTQSPSSLSASVGDRVTITCRASQDVSIAVAWYQQKPGKAPKLLIYSASYRYTGVPARFSGSGSGTDFTLTISSLQPEDFATYYCQQHYITPLTFGQGTKVEIKRTVAAPSVFIFPPSDEQLKSGTASVVCLLNNFYPREAKVQWKVDNALQSGNSQESVTEQDSKDSTYSLSSTLTLSKADYEKHKVYACEVTHQGLSSPVTKSFNRGEC
heavy: QVQLLQSGSELKKPGASVKVSCKASGYTFTNYGINWVRQAPGQGLEWLGWIHTYTGEPTYTDDFKGRFVFSLDTSVSTAYLQISSLKADDTAVYYCARGGFGSSYWYFDVWGQGTLVTVSSASTKGPSVFPLAPSSKSTSGGTAALGCLVKDYFPEPVTVSWNSGALTSGVHTFPAVLQSSGLYSLSSVVTVPSSSLGTQTYICNVNHKPSNTKVDKKVEPKSCDKTHTCPPCPAPELLGGPSVFLFPPKPKDTLMISRTPEVTCVVVDVSHEDPEVKFNWYVDGVEVHNAKTKPREEQYASTYRVVSVLTVLHQDWLNGKEYKCKVSNKALPAPIEKTISKAKGQPREPQVYTLPPSRKKLTKNQVKLTCLVKGFYPSDIAVEWESNGQPENNYKTTPPVLDCDGSFFLYSKLTVDKSRWQQGNVFSCSVMHEALHNHYTQKSLSLSPGK
chain: DIQLTQSPSSLSASVGDRVTITCRASQSVDFHGISFLHWYQQKPGKAPKLLIYAASSLQSGVPSRFSGSGSGTDFTLTISSLQPEDFATYYCQQSYRSPRTFGQGTKVEIKGGGGSGGGGSGGGGSGGGGSEVQLVESGGGLVQPGGSLRLSCAASGFSLSTGGVGVSWIRQAPGKGLEWIGEIYHSGSTYYSPSLKSRVTISRDNSKNTLYLQLNSLRAEDTAVYYCARYEYYYYDFDYWGQGTLVTVSSEPKSSDKTHTCPPCPAPELLGGPSVFLFPPKPKDTLMISRTPEVTCVVVDVSHEDPEVKFNWYVDGVEVHNAKTKPREEQYASTYRVVSVLTVLHQDWLNGKEYKCKVSNKALPAPIEKTISKAKGQPREPQVYTDPPSRDELTKNQVSLTCLVDGFYPSDIAVEWESNGQPENCYKTTPPVLDSDGSFFLYSKLTVDKSRWQQGNVFSCSVMHEALHNHYTQDSLSLSPGK
notes: also called anti-TROP2xCD28 BsAb
Take B1: the results for the EC50 in experiment [1], in experiment [2] and in [3] were 0.911 nM, 0.822 nM and 0.559 nM, respectively.

B2: TY24865 (antibody, human IgG4 S228P, kappa)
heavy: not shown
light: DIQLTQSPSSLSASVGDRVTITCRASQSVDFHGISFLHWYQQKPGKAPKLLIYAASSLQSGVPSRFSGSGSGTDFTLTISSLQPEDFATYYCQQSYRSPRTFGQGTKVEIKRTVAAPSVFIFPPSDEQLKSGTASVVCLLNNFYPREAKVQWKVDNALQSGNSQESVTEQDSKDSTYSLSSTLTLSKADYEKHKVYACEVTHQGLSSPVTKSFNRGEC
notes: hIgG4/S241P; also called parental anti-CD28 antibody
On to B2, for which the EC50 (read off the curve) (commonly the concentration that produces a half-maximal response) in experiment [4] was approximately 700 pM; in [7], approximately 900 pM. Moreover, the Kd (as a rule, the constant that tells how readily two partners part at equilibrium) in [5] is less than 0.001 nM. In addition, the binding result in experiment [6] is on record as “no binding (tested: 100 nM CTLA4)”. Moreover, half-maximal inhibition in [8] (IC50) was put at 0.68 nM. The values for the EC50 (in [9]; in experiment [10]; with Human CD28 on cells) were more than 4.94 nM, 0.58 nM and 0.46 nM, respectively.

B3: TY21580 (antibody, V domains shown)
VH: EVQLVESGGGLVQPGGSLRLSCAASGYSISSGYHWSWIRQAPGKGLEWLARIDWDDDKYYSTSLKSRLTISRDNSKNTLYLQLNSLRAEDTAVYYCARSYVYFDYWGQGTLVTVSS
VL: DIQLTQSPSSLSASVGDRVTITCRASQSVRGRFLAWYQQKPGKAPKLLIYDASNRATGIPSRFSGSGSGTDFTLTISSLQPEDFATYYCQQSSSWPPTFGQGTKVEIKR
For the molecule B3, the IC50 (commonly the point on the concentration scale where inhibition reaches its midpoint) in [11] came to 37.2 nM.

B4: TY24890 (antibody, human IgG4 S228P, kappa, V domains shown)
VH: EVQLVESGGGLVQPGGSLRLSCAASGYSISSGHHWGWIRQAPGKGLEWIGEIYHSGSTYYSPSLKSRVTISRDNSKNTLYLQLNSLRAEDTAVYYCARRELGYAYFDYWGQGTLVTVSS
VL: EIVLTQSPATLSLSPGERATLSCRASQDIRKYLAWYQQKPGQAPRLLIYAASTLQSGVPARFSGSGSGTDFTLTISSLEPEDFAVYYCQQYYRTPLTFGQGTKVEIKR
notes: hIgG4/S241P
With B4, the Kd in experiment [5] amounted to 4.44 nM; in experiment [6], 3.13 nM. Further, the koff (in general, a measure of how fast the partners let go of each other) came out at 0.000437 s⁻¹ in experiment [5] and 0.00344 s⁻¹ in experiment [6]. For the same molecule, the kon (as a rule, the rate constant with which the complex forms) in experiment [5] was 98500 M⁻¹ s⁻¹; in experiment [6], 1.1e+06 M⁻¹ s⁻¹. The molecule further displayed an IC50 in experiment [8] of 0.21 nM. Moreover, the binding result in experiment [12] was “no binding (tested: about 10^-6.9 M)”. The EC50 – broadly, the midpoint of the concentration-response curve – worked out at 1.55 nM in experiment [10] and 0.59 nM with Human CD28 on cells.
